Test results published in patent US10280218B2, “Antibodies binding to BMP4, and uses thereof” (ACADEMISCH MEDISCH CENTRUM, priority 2014, dated 2019).
Substitutions are numbered along the chain they refer to. In names and notes the source's numbering stands. Each block holds one molecule with its values, some of them ahead of it.

Tests used:
BMP2 [1] = target: T1, BMP2 (Homo sapiens, UniProt P12643); experiment: Surface plasmon resonance (SPR), BMPs injected over VHH-coated chip; details: molecule coupled to chip, —: No binding detected
T1 sequence (P12643 283-396): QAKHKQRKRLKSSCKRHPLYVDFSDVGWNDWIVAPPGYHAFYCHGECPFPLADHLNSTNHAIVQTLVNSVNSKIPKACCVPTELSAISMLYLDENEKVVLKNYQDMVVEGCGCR
Protocol: (§1) In a first set of experiments, controls and VHHs (either as monomers or dimers) were coupled to SPR chips and the measurement of BMP affinities was obtained by injecting the different BMPs to the plate.
(§2) Serial dilutions (2.0-10 μg/ml) of purified VHHs were spotted on an amine-specific SensEye gold-film gel-type SPRchip (Ssens), using a Continuous Flow Microspotter (Wasatch Microfluidics, Salt Lake City, Utah, United States) as described (Lokate et al., 2007). BMP binding was analyzed on an IBIS MX96 (IBIS Technologies, Enschede, The Netherlands) instrument by performing injections with dilution series (0.05-2.0 μg/ml) of recombinant BMPs on the VHH-coated chip. In each injection, BMPs were injected and incubated for 8 min, followed by 15 min thorough washing with binding buffer (PBS+0.05% Tween20+0.05% sodium azide) to measure dissociation. Epitope binning was done by injecting VHH dilutions (2.0 μg/ml) over the chip, immediately after the dissociation step. Injections with blank binding buffer were used as reference. After each concatenated injection, the chip was regenerated with 10 mM glycine-HCl, pH 2.0. Experimental data were processed with SPRintX software (IBIS Technologies) and kinetic parameters were determined using Scrubber2 software (BioLogic Software, Campbell, ACT, Australia). Binding constants were obtained by global fitting to a one-site binding model.

BMP6 = target: T2, BMP6 (Homo sapiens, UniProt P22004); experiment: as above; details: molecule coupled to chip; unit inferred; — not defined there (Table 1: No binding detected)
T2 sequence (P22004 375-513): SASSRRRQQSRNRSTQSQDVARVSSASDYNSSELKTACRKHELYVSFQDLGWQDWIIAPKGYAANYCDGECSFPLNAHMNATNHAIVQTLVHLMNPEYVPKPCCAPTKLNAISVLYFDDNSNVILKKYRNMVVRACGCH
Protocol: as §1, with “To confirm their BMP specificities and to elucidate their binding affinities, our VHHs were subjected to surface plasmon resonance (SPR) analysis. In” for “In”
as §2

BMP5 [2] = target: T3, BMP5 (Homo sapiens, UniProt P22003); experiment: as above; type: binding; details: molecule coupled to chip; unit inferred
T3 sequence (P22003 317-454): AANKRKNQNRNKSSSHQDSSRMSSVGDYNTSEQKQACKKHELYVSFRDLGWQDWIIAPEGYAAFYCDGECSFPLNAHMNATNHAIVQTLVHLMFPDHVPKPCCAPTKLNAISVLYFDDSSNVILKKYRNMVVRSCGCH
Protocol: as §1, with “To confirm their BMP specificities and to elucidate their binding affinities, our VHHs were subjected to surface plasmon resonance (SPR) analysis. In” for “In”
as §2

BMP7 = target: T4, BMP7 (Homo sapiens, UniProt P18075); experiment: as above; type: binding; details: molecule coupled to chip; unit inferred; — not defined there (Table 1: No binding detected)
T4 sequence (P18075 293-431): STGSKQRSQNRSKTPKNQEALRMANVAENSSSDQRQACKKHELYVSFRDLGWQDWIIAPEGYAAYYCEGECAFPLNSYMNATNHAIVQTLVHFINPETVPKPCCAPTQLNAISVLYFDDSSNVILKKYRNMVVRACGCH
Protocol: as §1, with “To confirm their BMP specificities and to elucidate their binding affinities, our VHHs were subjected to surface plasmon resonance (SPR) analysis. In” for “In”
as §2

BMP4 [3] = target: T5, BMP4 (Homo sapiens, UniProt P12644); experiment: as above; type: binding; parameters: purchased R&D systems; details: molecule coupled to chip
T5 sequence (P12644 293-408): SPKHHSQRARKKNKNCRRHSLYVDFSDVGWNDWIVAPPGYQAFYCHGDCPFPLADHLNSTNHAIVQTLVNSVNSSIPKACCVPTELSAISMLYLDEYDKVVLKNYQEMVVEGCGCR
Protocol: as §1, with “To confirm their BMP specificities and to elucidate their binding affinities, our VHHs were subjected to surface plasmon resonance (SPR) analysis. In” for “In”
as §2

BMP2 [4] = target: T6, BMP2 (human); experiment: SPR
T6 chain: T1 sequence (P12643 283-396)

BMP4 [5] = target: T7, BMP4 (human); experiment: SPR
T7 chain: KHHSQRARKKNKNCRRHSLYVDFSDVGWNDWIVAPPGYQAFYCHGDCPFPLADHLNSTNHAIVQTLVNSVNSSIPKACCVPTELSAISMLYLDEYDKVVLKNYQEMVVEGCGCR

BMP2 [6] = target: T1, BMP2; experiment: BMP activity luciferase reporter assay (BRE-luciferase, ID1 promoter) in C2C12 cells; type: cell-based, mouse
Protocol: (§3) One of the most studied BMP target genes is the Inhibitor of Differentiation 1 (ID1). This is an immediate early gene that is activated by binding of the phosphorylated SMADs to its promoter region (López-Rovira et al., 2002). Thus, we employed the BMP-responsive C2C12 cells, which are stably transfected with the BRE-luciferase vector containing the BMP-Responsive-Element (the mouse ID1 promoter) cloned into the pGL3 luciferase vector (Zilberberg 2007). […] C2C12 cells were treated with the different BMPs with or without our VHHs or human Noggin at a concentration of 5 μg/ml. Luciferase activity was measured after 16 hours incubation. Most of the transcriptional data is in concordance with the results obtained with the phosphorylation of SMAD1/5/8.
(§4) C2C12 cells were plated in 96-well plates at 5×10^3 cells/well and cells were allowed to attach overnight. 100 μl of DMEM with 0.1% BSA were added in each well. VHH antibodies and human Fc-Noggin at the indicated concentrations were added at the same time. Wells with unstimulated cells were added as controls. Cells were treated in triplicate with the BMPs at the indicated concentrations for 16 hours. Luciferase activity was measured by adding 100 μl of luciferase substrate solution from the Bright-Glo™ Luciferase Assay System (Promega Benelux, Leiden, The Netherlands). After 3 minutes of incubation, luciferase activity was measured with Synergy HT Multi-Mode Microplate Reader (Biotek, Winooski, Vt., United States). Luciferase values were normalized to background activity (activity of wells with no cells) and represented as ratio to the activity of BMP-stimulated cells.
(§5) To evaluate the extent of this increase in potency, the IC50 of the different VHHs were determined in a dose-dependent inhibition assay in C2C12 cells (FIG. 25). C2C12 cells were plated in 96-well plates at 5×10^3 cells/well and cells were allowed to attach overnight 100 μl of DMEM with 0.1% BSA were added in each well. VHH antibodies were added at the indicated concentrations at the same time as 5 ng/ml BMP4 (FIG. 25A-B, D) or 50 ng/ml of BMP2 (FIG. 25C,D). Luciferase activity was measured after 16 hours. Values are represented as ratio to the activity of BMP-stimulated cells. […] However, its effects were more striking for BMP2 rather than BMP4 inhibition. […] The IC50 values for BMP4 inhibition observed in our VHHs are considerably lower than those observed for anti-BMP4 commercially available from R&D (Katagiri et al 1994) and those described in WO_2008/030611.
(§6) C2C12 cells were cultured in 96-well plates at 5×10^3 cells/well. After overnight attachment cells were stimulated with 10 ng/ml hBMP4 (Cat No. 314-BP-020; R&D Systems), 50 ng/ml hBMP2 (Cat No. 355-BM-010; R&D Systems), 200 ng/ml hBMP5 (Cat No. 615-BMC-020; R&D Systems), 50 ng/ml hBMP6 (Cat No. 506-BP-020; R&D Systems), 200 ng/ml hBMP7 (Cat No. 354-BP-010; R&D Systems), 25 ng/ml hBMP9 (Cat No. 3209-BP-010; R&D Systems), 25 ng/ml hBMP10 (Cat No. 2926-BP-025; R&D Systems), 50 ng/ml hBMP12 (Cat No. 779-G7-010; R&D Systems) and with or without VHH antibodies: C4C4 and C8C8 at 500 ng/ml; natural antagonist: mNoggin (Cat No. 1967-NG-025; R&D Systems), hNoggin (Cat No. 6057-NG; R&D Systems) and mGremlin (cat#956-GR-050; R&D Systems) at 500 ng/ml; chemical antagonist: 0.5 μM LDN-193189 (Cat No. 11802; Cayman Chemical) and 0.2 μM DMH1 (Cat No. 57146; Selleckchem).
(§7) VHH efficacy was evaluated by stimulating cells with 10 ng/ml of hBMP4 and 50 ng/ml of hBMP2, with and without increase concentrations (from 0.1-10 μg/ml) of VHH and anti-BMP4 antibodies: clone 66119, clone 3H2, clone M912262, clone PA354-16.1.1, Clone EPR6211, and anti-BMP4 (ab39973). […] Unstimulated cells were used as controls and wells with no cells used to normalize the background activity. […]

human BMP4 = experiment: as above; type: cell-based, mouse; details: 10 ng/ml hBMP4, 16 h; VHH, Noggin, Gremlin 500 ng/ml; LDN 0.5 μM; DMH1 0.2 μM
Protocol: as §3, §4, §5, §6, §7

BMP5 [7] = target: T3, BMP5; experiment: as above; type: cell-based, mouse; parameters: purchased R&D Systems 615-BMC-020; details: 200 ng/ml hBMP5, 16 h; VHH, Noggin, Gremlin 500 ng/ml; LDN 0.5 μM; DMH1 0.2 μM
Protocol: as §3
as §4, with “Cells were treated in triplicate with the BMPs at the indicated concentrations for 16 hours.” left out, “Luciferase values were normalized to background activity (activity of wells with no cells) and represented as ratio to the activity of BMP-stimulated cells.” left out

B1: C4-C4 (antibody, V domains shown)
V domain 1: EVQLVESGGGLVQAGGSLRLSCAASGRTFSTYAMGWFRQAPGKEREFVAAISKGGGITYYSDSVRGRFTISKENAKNTVYLQMNSLKPEDTAVYYCAADPVSSVAKSPVAYPYWGQGTQVTVSS
V domain 2: B1 V domain 1
Kd (BMP2 [4]): 2.15 nM
Kd (BMP4 [5]): 0.0097 nM

B2: D99A of C4: mutational variant of VHH C4, single substitution D99A (protein)
VHH: B1 V domain 1 with D99A
inhibition of BMP2-mediated transcriptional activation (BMP2 [6]; BMP2 50 ng/ml, 16 hours, 5 μg/ml): C4 nor its D99A mutant, had any effect

B5: E7 (antibody, V domains shown)
VH: EVQLVESGGGLVQAGGSLRLSCAASGSIRGFVAMAWYRQAPGKQREWVATVTNGGTLYGDSVKGRFTGSRDNAKNTVYLQMNSLKPEDTAVYYCALRQIGASGYDYWGQGTQVTVSS
Kd (BMP2 [4]): 1.07 nM
Kd (BMP4 [5]): 0.512 nM

B6: C8-C8 (antibody, V domains shown)
V domain 1: EVQLVESGGGLVQAGGSLRLSCAASGRTFRINDMGWYRQAPGKSRDMVARITSGGNTNYADSVKGRFTISRDNAKNTVYLQMNSLKPEDTAVYYCNADGLRFDSTRYRPFDSWGQGTQVTVSS
V domain 2: B6 V domain 1
Kd (BMP2 [4]): 0.0628 nM
Kd (BMP4 [5]): 0.031 nM

B7: C8-E7 (antibody, V domains shown)
V domain 1: B6 V domain 1
V domain 2: B5 VH
Kd (BMP2 [4]): 0.554 nM
Kd (BMP4 [5]): 0.099 nM

B8: C8 (antibody, V domains shown)
VH: B6 V domain 1
Kd (BMP2 [4]): 0.88 nM
Kd (BMP4 [5]): 0.392 nM

Second part, led by results:

kd (BMP2) (BMP2 [1]): 14.0 10^−5 sec^−1
Kd (BMP6): 24 nM
Kd (BMP5 [2]): 60 nM
Kd (BMP7): 131 nM
kd (BMP4) (BMP4 [3]): 9.2 10^−5 sec^−1
Molecule: BMPR1a: type I BMP receptor used as control in SPR [reference compound]

inhibition of BMP-2 signals, comparison of inhibitors (BMP2 [6]; 50 ng/ml hBMP2, 16 h, VHH, Noggin, Gremlin 500 ng/ml, LDN 0.5 μM, DMH1 0.2 μM): greatly inhibit
inhibition of BMP5 signals, comparison of inhibitors (BMP5 [7]): greatly inhibit
B3: Gremlin: natural BMP antagonist (R&D Systems) (protein)
chain: KKKGSQGAIPPPDKAQHNDSEQTQSPPQPGSRTRGRGQGRGTAMPGEEVLESSQEALHVTERKYLKRDWCKTQPLKQTIHEEGCNSRTIINRFCYGQCNSFYIPRHIRKEEGSFQSCSFCKPKKFTTMMVTLNCPELQPPTKKKRVTRVKQCRCISIDLD
inhibition of BMP4-derived signals, comparison of inhibitors (human BMP4): greatly inhibit

Kd (BMP4 [5]): 0.635 nM
B4: BMPR1a (protein)
chain: QNLDSMLHGTGMKSDSDQKKSENGVTLAPEDTLPFLKCYCSGHCPDDAINNTCITNGHCFAIIEEDDQGETTLASGCMKYEGSDFQCKDSPKAQLRRTIECCRTNLCNQYLQPTLPPVVIGPFFDGSIR
